The data set concerns the molecule itself. As to the kind of experiment: sedimentation of polymers by ultracentrifugation; FtsZ 10 µM, pH 6.5 buffer, with ZapA (10 µM), without DEAE-dextran.

B1: FtsZ8 (FtsZ S219L) (natural protein, B. subtilis, UniProt P17865 1-382, looked up)
chain: MLEFETNIDGLASIKVIGVGGGGNNAVNRMIENEVQGVEYIAVNTDAQALNLSKAEVKMQIGAKLTRGLGAGANPEVGKKAAEESKEQIEEALKGADMVFVTAGMGGGTGTGAAPVIAQIAKDLGALTVGVVTRPFTFEGRKRQLQAAGGISAMKEAVDTLIVIPNDRILEIVDKNTPMLEAFREADNVLRQGVQGISDLIATPGLINLDFADVKTIMLNKGSALMGIGIATGENRAAEAAKKAISSPLLEAAIDGAQGVLMNITGGTNLSLYEVQEAADIVASASDQDVNMIFGSVINENLKDEIVVTVIATGFIEQEKDVTKPQRPSLNQSIKTHNQSVPKREPKREEPQQQNTVSRHTSQPADDTLDIPTFLRNRNKRG
notes: FtsZ, Bacillus subtilis, mutant ftsZ8; source: overexpression plasmid pSG5333 (Ptac-ftsZ8, derivative of pCXZ); purified essentially as described [21]
For the protein B1, the binding result is on record as “binds”.
